What was measured:
[1] = tested on: PDGF-responsive neural precursors (PRPs) from dissociated E14 MGE/LGE; assay: Primary neurosphere generation from dissociated E14 ganglionic eminences; assay type: cell-based, mouse; settings: for neurosphere size / number of neurospheres produced: neurotrophin in the presence of PDGF
Procedure: Cell culture. The culture medium (MHM) was composed of DMEM/F-12 (1:1) including HEPES buffer (5 mM), glucose (0.6%), sodium bicarbonate (3 mM), glutamine (2 mM), insulin (25 μg/ml), transferrin (100 μg/ml), progesterone (20 nM), putrescine (10 μM), and sodium selenite (30 nM; all from Sigma, St. Louis, Mo., except glutamine from Invitrogen, Carlsbad, Calif.). The lateral, medial, or both ganglionic eminences (LGE, MGE or both) were removed from Embryonic Day 14 (E14) mouse embryos and mechanically dissociated with a fire-polished Pasteur pipette in MHM. Cells were plated at a density of […] unless otherwise indicated.
For neurosphere generation, PDGF-AA (100 ng/ml; Peprotech, Rocky Hill, N.J.), PDGF-BB (100 ng/ml; Peprotech), EGF (20 ng/ml; Peprotech), FGF2 (20 ng/ml; R&D [Minneapolis, Minn.])+heparan sulfate (2 μg/ml; HS; R&D), SHH (2 ug/ml; R&D), cyclopamine (5 μM; Toronto Research Chemicals, North York, Ontario), and/or DMSO (0.1%; carrier) was added to the MHM. MHM used to generate neurospheres also contained 2% B27 (Invitrogen).
[…] is one of the earliest markers of OLPs, and signaling by PDGF-AA is required for the generation of most oligodendrocytes (Fruttiger et al., Development 126:457 (1999)). Increasing concentrations of PDGF-AA were used to determine whether stimulation of dissociated E14 medial and lateral ganglionic eminences. (MGE and LGE, respectively) results in generation of neurospheres. The neurosphere assay was used because manipulation of primary cells is minimal compared to the immunopanning procedures used to isolate O-2A progenitors.
The effect of brain-derived neurotrophic factor (BDNF), neurotrophin-3 (NT-3), and nerve growth factor (NGF) on PRPs was determined. Cells were cultured as previously reported (Chojnacki et al., J Neurosci 24(48):10888 2004) in the presence of various combinations of PDGF, brain-derived neurotrophic factor (BDNF), NT-3, nerve growth factor (NGF), and the effects on neurosphere generation characterized. MHM is the defined medium used in cultures without growth factor.

[2] = tested on: PDGFRα-labeled cells (PRPs); assay: PDGFRα and Tunel staining of dissociated primary cells, 24 hours; assay type: cell-based
Procedure: Dissociated primary cells were cultured in 24-well plates with or without NT-3 for 24 hours, stained for PDGFRα and Tunel, and the number of labeled cells counted.

[3] = tested on: PDGF-generated neurospheres; assay: Differentiation of primary PDGF-AA-generated neurospheres, immunocytochemistry; assay type: cell-based, mouse

Molecule | neurosphere size [1] | number of neurospheres produced [1] | Tunel and PDGFRα co-labeled cells ([2]; with or without NT-3, 24 hours) | PDGFRα-labeled cells ([2]; with vs without NT-3, 24 hours) | generation of neurospheres by timing of treatment ([1]; initial 24 hour NT-3 vs exposure after first 24 hours) | GFAP-immunoreactive cells (astrocytes) ([3]; 2 DIV differentiation) | OLIG2 / O4 expression ([3]; 6 DIV PDGF-generated neurospheres differentiated 2 DIV)
BDNF: brain-derived neurotrophic factor (protein, UniProt P23560 19-247, looked up) Neurotrophic factor BDNF …: APMKEANIRGQGGLAYPGVRTHGTLESVNGPKAGSRGLTSLADTFEHVIEELLDEDQKVRPNEENNKDADLYTSRVMLSSQVPLEPPLLFLLEEYKNYLDAANMSMRVRRHSDPARRGELSVCDSISEWVTAADKKTAVDMSGGTVTVLEKVPVSKGQLKQYFYETKCNPMGYTKEGCRGIDKRHWNSQCRTTQSYVRALTMDSKKRIGWRFIRIDTSCVCTLTIKRGR | promote the generation of larger neurospheres | more neurospheres are produced | – | – | – | – | –
NT-3: neurotrophin-3 (protein, UniProt P20783 139-257, looked up) Neurotrophin-3: YAEHKSHRGEYSVCDSESLWVTDKSSAIDIRGHQVTVLGEIKTGNSPVKQYFYETRCKEARPVKNGCRGIDDKHWNSQCKTSQTYVRALTSENNKLVGWRWIRIDTSCVCALSRKIGRT | promote the generation of larger neurospheres | more neurospheres are produced | no Tunel and PDGFRα co-labeled cells were observed | more PDGFRα-labeled cells | more effective at promoting the generation of neurospheres than continued exposure to NT-3 after the first 24 hours | – | –
CNTF: ciliary neurotrophic factor (protein, UniProt P26441 1-200, looked up) Ciliary neurotrophic factor: MAFTEHSPLTPHRRDLCSRSIWLARKIRSDLTALTESYVKHQGLNKNINLDSADGMPVASTDQWSELTEAERLQENLQAYRTFHVLLARLLEDQQVHFTPTEGDFHQAIHTLLLQVAAFAYQIEELMILLEYKIPRNEADGMPINVGDGGLFEKKLWGLKVLQELSQWTVRSIHDLRFISSHQTGIPARGSHYIANNKKM | – | – | – | – | – | did not induce GFAP expression | no effect on OLIG2 or O4 expression

From patent publication US7629169B2, “Methods for the production of platelet-derived growth factor-responsive neural precursor cells” (Stem Cell Therapeutics Corp., priority 2004, dated 2009)
